Earlier results as cited in patent US20190345209.

Test system: BCR-ABL1 zinc finger protein (three-finger ZFP) (synthetic construct)
Details: CITED (ref 50); p122 prints 78 uM, evidently a typo

## GCAGAAGCC (double strand) [BCR-ABL1 9 bp binding site (in Go92, Go66, Go85 promoters)]
  Kd: 0.078 nM
